Tests used:
human CD2 (human) [1] = target: human CD2 (human) (UniProt P06729); assay: flow cytometry of primary human T cells at day 5; competition with the staining anti-CD2 clone RPA-2.10 [left panel]
human CD2 (human) [2] = target: human CD2 (human) (UniProt P06729); assay: cell-based or functional assay

Chain of UniProt P06729 (P06729 25-351 limits assumed): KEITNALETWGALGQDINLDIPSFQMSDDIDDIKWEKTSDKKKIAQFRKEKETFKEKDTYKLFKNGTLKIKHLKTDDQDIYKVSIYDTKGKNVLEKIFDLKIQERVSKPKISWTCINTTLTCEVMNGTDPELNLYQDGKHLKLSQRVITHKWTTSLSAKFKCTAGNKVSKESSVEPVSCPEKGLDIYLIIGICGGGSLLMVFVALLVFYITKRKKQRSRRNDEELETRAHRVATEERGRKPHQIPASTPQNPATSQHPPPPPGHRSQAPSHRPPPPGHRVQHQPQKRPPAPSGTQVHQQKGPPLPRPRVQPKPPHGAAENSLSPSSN

| Substance | IC50 (read off the curve) (human CD2 (human) [1]) [nM] | % Efficacy, primary human T cell killing assay (human CD2 (human) [2]) [%] | IC50 (pM), primary human T cell killing assay (5 days, flow cytometry) (human CD2 (human) [2]) [pM] |
| --- | --- | --- | --- |
| CD2 RPA naked (antibody) | 0.08 |  |  |
| CD2 RPA2.10 D265C/H435A ADC A (antibody) | 0.1 | 85.7 | 54 |
